What is called Ki is the dissociation constant of the complex between target and ligand, obtained from inhibition or displacement.

This note sets out measurements from US20090105116A1.

Test [1] concerns the target human α-thrombin (human) (UniProt P00734). The experiment in a line: cell-based or functional assay.
Test [2] shares this target. The experiment in a line: amidolytic assay with chromogenic substrate S-2238, Lineweaver-Burk, 25° C.
Test [3] concerns the target P3182, Bbs-R-(D-Pip)-Gly-Glu-Gln-Lys-Leu-Ile-Ser-Glu-Glu-Asp-Leu-Gly-Asp-Phe-Glu-Glu-Ile-Pro-Glu-Glu-Tyr-Leu-Gln. The experiment in a line: cell-based or functional assay.

Sequence of P3182, Bbs-R-(D-Pip)-Gly-Glu-Gln-Lys-Leu-Ile-Ser-Glu-Glu-Asp-Leu-Gly-Asp-Phe-Glu-Glu-Ile-Pro-Glu-Glu-Tyr-Leu-Gln (peptide, as listed by the source, form in doubt): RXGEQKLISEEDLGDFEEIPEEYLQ

As to “P3162, Bbs-R-(D-Pip)-Gly-(Ser-Pro-His-Tyr(P)-Glu-Lys-Val-Ser-Gly)2-Asp-Phe-Glu-Glu-Ile-Pro-Glu-Glu-Tyr-Leu-Gln (peptide)”, the IC50, nM (25° C.), fibrinogen clotting assay with human α-thrombin (human) [1] is 19 nM.

Take “P3170, Bbs-R-(D-Pip)-Gly-(Ser-Pro-His-Tyr(P)-Glu-Lys-Val-Ser-Gly)-Asp-Phe-Glu-Glu-Ile-Pro-Glu-Glu-Tyr-Leu-Gln (peptide)”: the Ki in the test with human α-thrombin (human) [2] was 1.5 nM. For the same substance, the IC50, nM (25° C.), fibrinogen clotting assay with human α-thrombin (human) [1] was found to be 0.7 nM.

As for “P3172-P3165, disulfide-linked Bbs-Arg-(D-Pip)-Gly-Cys...Cys-(Gly-Ser)8-Gly-Asp-Phe-Glu-Glu-Ile-Pro-Glu-Glu-Tyr-Leu-Gln (peptide)”, the IC50, nM (37° C.), fibrinogen clotting assay in the test with human α-thrombin (human) [1] is 1.1 nM.

With “P3291, Bbs-Arg-dPip-Gly-Arg-Lys-Ser-Leu-Thr-Ile-Tyr-Ala-Gln-Val-Gln-Lys-Gly-Asp-Phe-Glu-Glu-Ile-Pro-Glu-Glu-Tyr-Leu-Gln (peptide)”, in the test with human α-thrombin (human) [1], the IC50, nM, fibrinogen clotting assay (the text says 25° C.) was determined as 7 nM.

Take anti-c-myc antibody 9E10 (Sigma): in test [3], the clotting onset time with 150 nM peptide, 0.6 nM thrombin and 1.2 µM antibody came to 230 s.
